Source: patent publication US20170233472A1

Experiments:
[1] = molecular target: human ROR1 expressed on the surface of cancer cells (human) (UniProt Q01973); assay: FACS on PC-3 cells (ROR1-expressing), isotype control, concentration not given; PE-A, Anti-EK Biotin
[2] = molecular target: human ROR1 expressed on the surface of cancer cells (human) (UniProt Q01973); assay: FACS on HBL-2 cells (ROR1-expressing), isotype control, concentration not given; PE-A, Anti-EK Biotin

human ROR1 expressed on the surface of cancer cells (human), sequence (Q01973 30-937): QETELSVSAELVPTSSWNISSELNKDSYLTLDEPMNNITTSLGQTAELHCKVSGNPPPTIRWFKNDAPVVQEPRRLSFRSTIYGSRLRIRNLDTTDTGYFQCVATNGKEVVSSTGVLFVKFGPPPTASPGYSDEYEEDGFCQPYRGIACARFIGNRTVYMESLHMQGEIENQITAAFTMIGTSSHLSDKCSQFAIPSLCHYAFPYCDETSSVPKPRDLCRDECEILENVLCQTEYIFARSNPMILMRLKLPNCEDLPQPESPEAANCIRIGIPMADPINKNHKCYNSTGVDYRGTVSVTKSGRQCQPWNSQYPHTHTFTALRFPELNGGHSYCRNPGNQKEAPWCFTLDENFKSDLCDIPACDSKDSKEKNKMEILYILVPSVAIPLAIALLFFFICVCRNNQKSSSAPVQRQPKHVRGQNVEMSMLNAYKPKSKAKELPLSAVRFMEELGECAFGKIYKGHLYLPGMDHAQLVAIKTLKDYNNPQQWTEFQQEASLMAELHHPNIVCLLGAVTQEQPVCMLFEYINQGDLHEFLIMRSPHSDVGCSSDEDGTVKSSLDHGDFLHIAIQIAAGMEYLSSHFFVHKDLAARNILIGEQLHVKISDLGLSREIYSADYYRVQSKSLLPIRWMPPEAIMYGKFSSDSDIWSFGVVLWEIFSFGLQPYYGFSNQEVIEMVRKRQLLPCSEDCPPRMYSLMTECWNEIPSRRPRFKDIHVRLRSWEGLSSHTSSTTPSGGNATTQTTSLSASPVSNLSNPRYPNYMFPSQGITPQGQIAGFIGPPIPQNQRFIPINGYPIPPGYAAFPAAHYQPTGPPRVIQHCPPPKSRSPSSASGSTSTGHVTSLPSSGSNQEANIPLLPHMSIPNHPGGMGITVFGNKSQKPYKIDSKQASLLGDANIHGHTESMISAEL

Isotype Control
Mean: PE-A [1]: 85.2
Mean: PE-A [2]: 13.8
